Reference: patent publication CN106905431A (XUHUA (SHANGHAI) BIOLOGICAL RES AND DEV CENTER CO LTD, dated 2017)
Positions count from the first letter of the chain named. Values belong to the binder of their own block, whether it stands above or below them.

Key:
[1] = biological target: T1, 人补体D因子 (human complement Factor D) (human, UniProt P00746 26-253); test: SPR (Biacore T200), Fab captured on CM5 chip
T1 construct: Bought protein; also called 人D因子; human CFD

[2] = biological target: T1, 人补体D因子 (human complement Factor D); test: SPR (Biacore T200), full-length antibody captured by anti-human IgG Fc on CM5, antigen in flow, 1:1 model
[3] = biological target: T1, 人补体D因子 (human complement Factor D); test: ELISA on coated human Factor D and BLI

T1 sequence (P00746 26-253 limits assumed): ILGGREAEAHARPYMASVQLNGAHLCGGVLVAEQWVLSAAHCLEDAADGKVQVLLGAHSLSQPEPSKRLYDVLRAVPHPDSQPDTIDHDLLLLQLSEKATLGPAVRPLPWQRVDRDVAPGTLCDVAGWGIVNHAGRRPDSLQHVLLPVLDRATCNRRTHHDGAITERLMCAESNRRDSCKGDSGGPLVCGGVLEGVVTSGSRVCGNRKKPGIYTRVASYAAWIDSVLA

binding result [1]: binds
B1: 人源化Fab克隆 AS01237 (Fab, V domains shown)
VH: EVQLVQSGAEVKKPGASVKVSCKASGYTFTSYVINWVRQAPGQGLEWMGYINPYIDDSEYNEKFEGRVTMTRNTSISTAYMELSSLRSEDTAVYYCAREGPAFAYWGQGTLVTVSS
VL: DIVMTQTPLSLSVTPGQPASISCRSSQNLVHSNGDTYLEWYQQKPGQPPKLLIYKVSTRFSGVPDRFSGSGSGTDFTLKISRVEAEDVGVYYCFQGSHVPPTFGQGTKVEIK
notes: Fab fragment with a SASA tag, as screened on Biacore; also called AS01237 Fab

binding result [2]: binds
B2: 抗人D因子人源化抗体 AS01326 (全长抗体) (antibody, V domains shown)
VH: B1 VH with E1Q, A9S, V11L, A40M, Q43K, N73D, S85R, E89D
VL: B1 VL with I2V, T7S, S12P, P15L, Q42L, K50Q, V88F
notes: Full-length antibody from pTT5 in HEK293, protein A purified, captured by anti-human IgG Fc

binding result [1]: binds
B3: 人源化Fab克隆 AS01326 (Fab, V domains shown)
VH: B1 VH with E1Q, A9S, V11L, A40M, Q43K, N73D, S85R, E89D
VL: B1 VL with I2V, T7S, S12P, P15L, Q42L, K50Q, V88F
notes: Fab fragment with a SASA tag, as screened on Biacore; also called AS01326 Fab

binding result [2]: binds
B4: 抗人D因子人源化抗体 AS01237 (全长抗体) (antibody, V domains shown)
VH: B1 VH
VL: B1 VL
notes: as for B2

binding result [2]: binds
B5: 抗人D因子人源化抗体 AS01328 (全长抗体) (antibody, V domains shown)
VH: B1 VH with E1Q, A9S, V11L, P41T, N73D, I76T, A79V
VL: B1 VL with Q17E, Q42L, P48A, K50R
notes: as for B2

binding result [1]: binds
B6: 人源化Fab克隆 AS01328 (Fab, V domains shown)
VH: B1 VH with E1Q, A9S, V11L, P41T, N73D, I76T, A79V
VL: B1 VL with Q17E, Q42L, P48A, K50R
notes: Fab fragment with a SASA tag, as screened on Biacore; also called AS01328 Fab

binding result [3]: binds
B7: 抗人D因子鼠源单克隆抗体 Mab25 (antibody, V domains shown)
VH: AVQLQQSGPELVKPGASVKMSCKASGYTFTSYVINWMKQKPGQGLEWIGYINPYIDDSEYNEKFEGKATLTSDKTSSIAYMELSSLTSEDSAVYYCAREGPAFAYWGQGTLVTVSA
VL: DILLTQTPLSLPVSLGDHASVSCRSSQNLVHSNGDTYLEWYLQKPGQSPKLLIYKVSTRFSGVPDRFSGSGSGTDFTLKISRVEAEDLGVYYCFQGSHVPPTFGGGTKLEIK
notes: Mouse hybridoma antibody; The heavy chain was cloned with a primer for the mouse IgG1 constant region; also called 杂交瘤细胞株25

binding result [2]: binds
B8: 抗人D因子嵌合抗体 (Mab25的嵌合抗体, 全长) (antibody, V domains shown)
VH: B7 VH
VL: B7 VL
notes: Chimeric form of Mab25 (mouse variable regions on human constant regions), compared with the humanised antibodies in the Biacore assay
